Our source for the protein production values is a protein production outcome set (Wang et al. 2014).
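Note: failed if final PepcDB status was selected cloned or expressed and not failed if soluble or beyond.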

This data set is described as follows: label from the status in PepcDB records.
Regarding “MKEDWKSTIQKRIVERNLNQSKKYESIMKSYNSLVEEKNNLLAIIASLTSENMYLLNNRKLNHSFESTMMTETNISRNEDIFLSNETKKGHNNNNNQNDYNNDNSLNYSRTNIITMKSPDSLSQNTITKKEFLEVIKEKGKNEELILLLKNSVNEKEKMLHILNKENNNLNNVICKREEELYEKKKDIFKLEELLNKKETQIKLYENNNKSLKTKIQLHDRKNQKYFRQYNILRFTYFKLLKQVGEMKVYNNNINQNYFSLRKEMLQKKEENEKLLNYLIHCKTSYKKELKKLYQEITNKQKKYILFKNNQFYVNLYLRKF”, the protein production entry is “failed”.

On to “MKEFFKMFFASILGVITAGIILFCIFLFIFFGIVAGIASKATGGTIPKIEANSILHIDNSSFPEIVSANPWSMLTGKDESVSLSQAVEAIGQAKNNPNITGIFLDLDNLSVGMASAEELRRALQDFKMSGKFVVSYADRYTQKGYYLSSIADKLYLNPKGMLGLIGIATQTMFYKDALDKFGVKMEIFKVGTYKAAVEPFMLNRMSDANREQITTYINGLWDKITSDIAESRKTAMDSVKMFADKGEMFGLAEKAVEMKLVDELAYRTDVEKELKKMSQRGEKDELRFVSLSQVLANGPMNKTKGSRIAVLFAEGEITEEIIKKPFDTDGSSITQELAKEIKAAADDDDIKAVVLRVNSPGGSAFTSEQIWKQVADLKAKKPIVVSMGDVAASGGYYIACAANSIVAEHTTLTGSIGIFGMFPNFAGVAKKIGVNMDVVQTSKYADLGNTFAPMTVEDRALIQRYIEQGYDLFLTRVSEGRNRTKAQIDSIAQGRVWLGDKALALGLVDELGGLDTAIKRAAKLAQLGGNYSIEYGKTKRNFFEELLSSSAADMKSAILSTILSDPEIEVLRELRSMPPRPSGIQARLPYYFMPY”, for which the protein production result was “failed”.

Turning to “MKEGKHFVLVHGACHGGWSWYKLKPLLEAAGHKVTALDLAASGTDLRKIEELRTLYDYTLPLMELMESLSADEKVILVGHSLGGMNLGLAMEKYPQKIYAAVFLAAFMPDSVHNSSFVLEQYNERTPAENWLDTQFLPYGSPEEPLTSMFFGPKFLAHKLYQLCSPEDLALASSLVRPSSLFMEDLSKAKYFTDERFGSVKRVYIVCTEDKGIPEEFQRWQIDNIGVTEAIEIKGADHMAMLCEPQKLCASLLEIAHKYNLEHHHHHH”, the protein production result is listed as “not failed”.

As for “MKEIALLAIARYGDLIQTTPLVRALRRAHPGARITAIVEDRFCGILPLLPGIDRTIVLNKQDIAWDIATGDSPLVPYLKMDEFVRKLEEGSYDLLVNITCSRLSAFFASCVTSRRRTGISADEAGERNIVTLEHHHHHH”, the protein production result was “failed”.

For “MKEIKEITKKDVQDAEIYLYGSVVEGDYSIGLSDIDVAIVSDVFEDRNRKLEFFGKITKKFFDSPFEFHILTKKEWKMSKRFIRKYRRLDLIT”, the protein production result was “not failed”.

For “MKEKDKWIKNFRTRMEGYSEPAPADLWEQLEKELDTVPKVIPMWRRWQAVAAVALLVVVSSLTVWFWQSPSANYLEKQSAELNVMHEPDELVPGSITPEQPMALVVPAARSGKKQHVKVGGVAKAEALAAEQEVLLNKEVEEIQIEENYIEEQKEESVIVEQKQQKQAGRSSYSAAKTNYAYVAPHRKKDRNWSVGLSTGNGTFSSSTSMDGYLPLPNGTRNATMNSAYGVETRAEIDKLVQFNNLSEGKDAQSDIKYRMPVTFGASLRFDLSDDWAVETGVTYTQLSSETRSGTEKNNYGWEEKLHYVGIPLKVNRNIWSNKRFEVYASAGGAVEKCVSGKRSIIGSVSTSNAGKDEQFSGGEENVKVKPLQWSLSAAAGAQFKITEKLGIYAEPGVVYYFDDGSNVNTIRKEHPFNFNIQLGVRFTLPK”, the protein production result was “failed”.

Consider “MKEKVVSLAQDLIRRPSISPNDEGCQQIIAERLEKLGFQIEWMPFNDTLNLWAKHGTSEPVIAFAGHTDVVPTGDENQWSSPPFSAEIIDGMLYGRGAADMKGSLAAMIVAAEEYVKANPNHKGTIALLITSDEEATAKDGTIHVVETLMARDEKITYCMVGEPSSAKNLGDVVKNGRRGSITGNLYIQGIQGHVAYPHLAENPIHKAALFLQELTTYQWDKGNEFFPPTSLQIANIHAGTGSNNVIPAELYIQFNLRYCTEVTDEIIKQKVAEMLEKHNLKYRIEWNLSGKPFLTKPGKLLDSITSAIEETIGITPKAETGGGTSDGRFIALMGAEVVEFGPLNSTIHKVNECVSVEDLGKCGEIYHKMLVNLLDS”, for which the protein production result is “not failed”.

For the sequence “MKELIKVIAFDADDTLWSNEPFFQEVEKQYTDLLKPYGTSKEISAALFQTEMNNLQILGYGAKAFTISMVETALQISNGKIAADIIRQIVDLGKSLLKMPIELLPGVKETLKTLKETGKYKLVVATKGDLLDQENKLERSGLSPYFDHIEVMSDKTEKEYLRLLSILQIAPSELLMVGNSFKSDIQPVLSLGGYGVHIPFEVMWKHEVTETFAHERLKQVKRLDDLLSLLG”, the protein production result is “not failed”.

Consider “MKELTVPDTTPLLPIVDPFEQQDSEGPDSTKVYPFYRNLAEGKLTMQRCKSCGRIFYPPQAMCKHCNSTDYEWVEVPKRGKIHAFSALLLGFPMVIEEFAPFVIAVARFGDYPENGVQIVGAMFDVDYSELSIGDEVEWEILKIKGPGDKVRYWYHFRKVLEHHHHHH”, for which the protein production result is “failed”.

Turning to “MKEQSYGKFAKFLHWVMALMIIVLIAVGTYMAGLDKADPNKMLLVGMHKSFGVIFMQFAILRVIWSRLNNSPKLPDVLASWEKLLSKTITGSLYLLMLAIPFSGYAMTNLFGYPVSLFGLIDLPVLFGKNTEMALLAKQAHFLLVYTLMAALFAHITGALKHRFLDKPEADVLPRMMPIKPRI”, the protein production result is “failed”.

For the sequence “MKERILQEIKTRVNRKSWELWFSSFDVKSIEGNKVVFSVGNLFIKEWLEKKYYSVLSKAVKVVLGNDATFEITYEAFEPHSSYSEPLVKKRAVLLTPLNPDYTFENFVVGPGNSFAYHAALEVAKHPGRYNPLFIYGGVGLGKTHLLQSIGNYVVQNEPDLRVMYITSEKFLNDLVDSMKEGKLNEFREKYRKKVDILLIDDVQFLIGKTGVQTELFHTFNELHDSGKQIVICSDREPQKLSEFQDRLVSRFQMGLVAKLEPPDEETRKSIARKMLEIEHGELPEEVLNFVAENVDDNLRRLRGAIIKLLVYKETTGKEVDLKEAILLLKDFIKPNRVKAMDPIDELIEIVAKVTGVPREEILSNSRNVKALTARRIGMYVAKNYLKSSLRTIAEKFNRSHPVVVDSVKKVKDSLLKGNKQLKALIDEVIGEISRRALSGLEHHHHHH”, the protein production entry is given as “not failed”.

In the case of “MKERKKKYVALWQVMQRECRRLVSRPLYLFCMVIAPLFCYLFFTTLMDSGLPQNLPAGVVDMDDSSTSRNIVRNLDAFSQTGVVAHYSNVTDARIAVQEGKIYGFFYIPKGLSAEAQSQRQPKISFYTNYSYLIAGSLLFRDMKMMGELTAGSAARSVLYAKGATEDQAMGFLQPIVIDTHPLNNPWLNYSVYLCNTLIPGVLMLLIFMVTVYSIGVEIKDRTAREWLRMSNNSIYIALAGKLLPHTVVFFIMGIFYNVYLYGFLHFPCNSGIFPMIFATLCLVLASQCCGIVMIGTLPTLRLGLSFASLWGVISFSISGFSFPVMAMNPVLQALSNLFPLRHYFLIYVDQALNGYSMAYSWSNYMALLIFMMLPFFVVHRLKEALVYYKYIP”, the protein production result was “failed”.

For “MKESRNTLNSSELNTTTSWSKHDTHWVLSLFGTAVGAGILFLPINLGIGGFWPLVAMAFLAFPMTYLAHRGLARFVLSSKIKNADFTDVVEEHFGAKAGRSISLLYFLSIFPILLIYGVGITNTVDSFMVNQAGMEALPRELLSGVLVFALIAIMMAGEKVMLRAFAVMVYPLVAILAFLSFYLMPNWTMPVLDTPDMGAFASTMWLAVPVVIFSFSHAAAISSFANVQRRHYGDDADAKAELILRCTSIMLIAFVLLFVFSCVLALSPEQLAQAKAQNVSVLSYLANATDNPFIATLGPLVAFVAITSSFLGHFLGARESLNGLITKHSNLSETRVDRISVVVLFLSIWAAAIMNPSILGMMEALSGPVIAMILFIMPMLAVHKIESMKQYRGKLSTYFVLITGIVAVSALVFSLLS”, the protein production entry was “not failed”.

With “MKETRGYGGDAPFCTRLNHSYTGMWAPERSAEARGNLTRPPGSGEDCGSVSVAFPITMLLTGFVGNALAMLLVSRSYRRRESKRKKSFLLCIGWLALTDLVGQLLTTPVVIVVYLSKQRWEHIDPSGRLCTFFGLTMTVFGLSSLFIASAMAVERALAIRAPHWYASHMKTRATRAVLLGVWLAVLAFALLPVLGVGQYTVQWPGTWCFISTGRGGNGTSSSHNWGNLFFASAFAFLGLLALTVTFSCNLATIKALVSRCRAKATASQSSAQWGRITTETAIQLMGIMCVLSVCWSPLLIMMLKMIFNQTSVEHCKTHTEKQKECNFFLIAVRLASLNQILDPWVYLLLRKILLRKFCQENPAVSS”, the protein production entry is on record as “failed”.

With “MKEVIAQNAKLSADDLKEILPKANKLEDFAFEKNEDSTISEVFQAKNGSENEGYIIKVSPKGFNGPIDMVVAIDKNREISGVKVLSQAETPGLGAKVEESSFSEKFKGLTIEDNIKIVKTSPSSQGEIQGITGATISSNAVSSGINDAISFYKENVLGEDLSKEKILNLSKINLEGDLKELTIELEEGIDKVSIVSNGEKEIGYAIEASEVGMYEEKPIKFALGISTGGIITGVQIIDHKETAGLGDLIEDENFLNSFIGVSSLDKLSVKENTNEIDLSVYGEVVNVDSISGATKSSMAIIKGITNVINFYNNNLSLEHHHHHH”, the protein production result is “not failed”.

Consider “MKEVLFISEMERGRAEIESRVSNIKTTQDFGYREKIKEKKDASTAYAACISELLLEEKVKKIAVAYDFPIFYSNYLTEAGFTIVPVKSPFRKMRSVKGPEEIEAIKYAQMAGEKAMEAAITLIADAEEKDGVLYFEGQVLTGAKVNSVIDHTLLDFGCEAEETIVSCGEDTSNPHGTTEGPLRANAPIILDIFPRSKKKRYFADMTRTVLRGEASEKLKEMYETVLVAQQKALEMVKPGIHSSEIHRAVCDLFEARGYHTYRSGSKAGFTHSTGHGVGLDIHELPSVGESGVLLETGNVITIEPGLYYPGIGGIRLEDMVLVTKTGYENFTGLEKKFVLKSFYNLEHHHHHH”, for which the protein production result is reported as “failed”.

For “MKFDNYIFDFDGTLADTKKCGEVATQSAFKACGLTEPSSKEITHYMGIPIEESFLKLADRPLDEAALAKLIDTFRHTYQSIEKDYIYEFAGITEAITSLYNQGKKLFVVSSKKSDVLERNLSAIGLNHLITEAVGSDQVSAYKPNPEGIHTIVQRYNLNSQQTVYIGDSTFDVEMAQHAGVPSAAVTWGAHDARSLLHSNPDFIINDPSEINTVL”, the protein production result was “failed”.

As for “MKFKTIIKASYSIIFLSFQKVLHWEHIKFTAFKNLLSVSTKILIDKSSSVKFAGKICTESNVELKALNGGKLFIAENVFINSNSIVVALDNIHIGSNTLIGPGVLIFDHDHDFEKDKNSGTKNGRHFVTKPIRIESDVWIGGNSVILKGVTIGKGAVIAAGSIVLKDVEPYCLYAGNPAKKIRSY”, the protein production entry is recorded as “failed”.

In the case of “MKFKTRDLVLIPLFTAMTIIGAFIKIPVGVVPINLQFLFTALSGVLLGGALGAVSQILYVALGLIGLPVFTSGGGLSYIFTPTFGYLIGYILAAFIIGKITHSRKPKFTTIFFSCILGLIAVYFIGTTYLYIILNYVAGKNVSIIASIKLGVLMFIPGDIVKCIITALLGSRILPILNKTSLNN”, the protein production entry was “failed”.

Consider “MKFLVENLNGSSFELEVDYRDTLLVVKQKIERSQHIPVSKQTLIVDGIVILREDLTVEQCQIVPTSDIQLEVSSDDDNPNHNDCDQKPQTEQSPALPLVSAEEYFERQDWPLTAEELRQIYSYRPEHEG”, for which the protein production result is “failed”.
